This assay concerns the target T1, CD70 (on CD70+ 786-O target cells) (UniProt P32970).
T1 sequence (looked up): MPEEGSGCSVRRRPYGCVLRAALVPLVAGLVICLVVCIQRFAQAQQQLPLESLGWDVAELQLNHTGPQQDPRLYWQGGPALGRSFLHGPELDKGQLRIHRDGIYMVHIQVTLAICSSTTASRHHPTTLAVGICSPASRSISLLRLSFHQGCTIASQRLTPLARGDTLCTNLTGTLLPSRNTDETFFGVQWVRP
Briefly: cell-based or functional assay.

B1: control h1F6 antibody (humanized IgG1 anti-CD70 monoclonal antibody, from CHO DG44 cells cultured without fucose analog; core fucosylated) (antibody, INN chains, looked up, V domains shown)
VH: QVQLVQSGAEVKKPGASVKVSCKASGYTFTNYGMNWVRQAPGQGLKWMGWINTYTGEPTYADAFKGRVTMTRDTSISTAYMELSRLRSDDTAVYYCARDYGDYGMDYWGQGTTVTVSS
VL: DIVMTQSPDSLAVSLGERATINCRASKSVSTSGYSFMHWYQQKPGQPPKLLIYLASNLESGVPDRFSGSGSGTDFTLTISSLQAEDVAVYYCQHSREVPWTFGQGTKVEIK
On to B1, for which the half maximal lysis (EC50), ADCC 51Cr release assay worked out at 9 ng/mL and the maximal specific lysis amounted to 42.5 percent.

B2: h1F6 antibody from host cells cultured in the presence of 50 µM alkynyl fucose peracetate (non-core fucosylated anti-CD70 antibody) (antibody, INN chains, looked up, V domains shown)
VH: B1 VH
VL: B1 VL
modifications: non-core fucosylated (alkynyl fucose)
B2 returned a half maximal lysis (EC50), ADCC 51Cr release assay of 0.5 ng/mL and a maximal specific lysis of 53.3 percent.

B3: h1F6 antibody from host cells cultured in the presence of 100 µM alkynyl fucose peracetate (antibody, INN chains, looked up, IgG1, V domains shown)
VH: B1 VH
VL: B1 VL
modifications: produced with 100 µM alkynyl fucose
B3 had a half maximal lysis (EC50), ADCC 51Cr release assay of 0.3 ng/mL and a maximal specific lysis of 54.8 percent.

(Values after US20190276796A1.)
